The values that follow come from the domain aggregation screens of Martell et al. (2025).

This data set can be described thus: soluble fraction after stress (log2 fold change); higher = more stays soluble; pooled small domains, quantitative proteomics. The settings on record: stress: 50 degC. In a few lines:
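Quantitative proteomics served as the high-throughput read-out for pooled custom libraries of small protein domains. Each was stressed at 50°C. Aggregation propensity is expressed as the base-two log fold change in soluble protein after stress. A higher value means a larger share of the protein remains in solution.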
With “HMDVNLSIRSGETIGIIGSTGSAKSTLVQLIPRLYDTTEGEVLVGGVNVKNYDLEALRNSVAMVLQKN”, the “soluble fraction (log2)” value was -0.066.

Regarding “HMDVPNLVGEEIKDVRRTLRHFQLEVIGEGSKIVSQVPKHGQRLPENTTIRVYLN”, the “soluble fraction (log2)” value is 0.155.

“HMDVPNLVGKTLEEAENELKKLNIRYNVTERADEAPKDTVIEQSPKPYEAMEPGTVVNLVISSGPA”: the “soluble fraction (log2)” value was 0.533.

Take “HMDVQPHIYLRKLDQFWPADLHSLILYTLDGRRLWSADSGNIPALPHRASSLVILEATWDNGQRTRRKQFL”: the “soluble fraction (log2)” value is -1.63.

Regarding “HMDVRKSISDLKALGLSDAAVTVYGTIGNKPVHIDKIVSELGIPVFKVLTALTQLEMKGLVTAMQGRMYVL”, the “soluble fraction (log2)” value was -1.01.

Turning to “HMDVSASEVGLTGRQTDVLSLMVKGRSNRDIAELLGLSEGTVKIHITAIFKALGVASRTQALVAAARLGLK”, the “soluble fraction (log2)” value is -0.156.

For the sequence “HMDVSLVEQTQRDILEYISKNNSNAQLPKEQEFVGLLGVSRVVVREALSRLRALGIIETKRKKGTVVVVPE”, the “soluble fraction (log2)” value was -0.165.

For the sequence “HMDWVAYGAELRRRRLLAGWSVAELSRRTNLSTSIIYQVEQARTRLRPSQLTLAKLAAALGMP”, the “soluble fraction (log2)” value was -3.15.

On to “HMDYAQAQRQAESAIALRPDVERLRLLLIYALQKQGKLREAEQAAADAIKSGLDTPALRQARANLRP”, for which the “soluble fraction (log2)” value was -0.264.

With “HMDYGSISFINWSIEVLSVIKTRLDRGDKIIDEVSGEKYTASSFEKFVRKNFSSYIFSQVYAEDHKK”, the “soluble fraction (log2)” value was -2.55.

On to “HMDYHTIQTGDKGDEVLRLQQALAEYGYYEGDLDGRFGQQTRRAVERFQYSHGLTADGIAGRNTLSVLYD”, for which the “soluble fraction (log2)” value is -0.101.

As to “HMDYIITHYPDNKRFETQVDGVVAFVQYRLSGDKLDIIHTIVPPAIGGRGIAAALVKYAYDYAIENGMK”, the “soluble fraction (log2)” value was -0.76.

Regarding “HMDYKSKLQELVQTEKRTVEYKLVDESGPAHNKSFTFEVVISGIKYGSGTGASKKIAEQNAAKEALEKLA”, the “soluble fraction (log2)” value was -0.0871.

“HMDYKSTLQELVQTVKKSVTYEVIDEEGPSHNKTFTSIVKIDGIVMGKGTAGSKKASEQEAARDALSKR”: the “soluble fraction (log2)” value amounted to 0.271.

For “HMDYLYHNGKEIDQGSIMYKMEDYSDGIFELQSAKYADGTELDEKELEELESTQELIDWVMIDFVS”, the “soluble fraction (log2)” value was 0.42.

For “HMDYNSYGLTERELELVDYVLKGYSRKEMAEASGLKVNTIGSYMKKIYRKLNIHNRTELKERFI”, the “soluble fraction (log2)” value was -0.37.

For “HMDYNYLVFVTNTGPRSIAVEDLEMTVSDGKLVVSSGADGETFDLSTLTKMYFSDAAVVSINDV”, the “soluble fraction (log2)” value is -0.996.

For “HMDYQYILVDVKDRIATVTINRPEYSNAFARESYYEIADAMNTLGARDDVGVIVITGAGKHFSAGGDIKRF”, the “soluble fraction (log2)” value was -0.534.

For the sequence “HMDYYKILGLSTSATLDQIKKAFRQLAIEFHPDKNPNNPTAEDKFQRISEAYAVLSNPEKRAEYDRSY”, the “soluble fraction (log2)” value is -0.0923.

In the case of “HMEAAETAVVTGTIVNIRSGPTLDFEAFAQVKQGDRLPVLDKFYNWYYVKLPSGVNGWISGQLVRIEQ”, the “soluble fraction (log2)” value is -0.25.

In the case of “HMEAELNSLVKTYENMKPKAAAQVFEELDMDVLLDVVERMKEKKLAPILAQVTPTRAKEITYELTQRR”, the “soluble fraction (log2)” value turned out to be 0.0638.

In the case of “HMEAFDYLGRRTRDLLERQGWTTVPLVRDAYLAVPGGERLLQVPGFGRKSLREVRRWLWLQIGDPRFE”, the “soluble fraction (log2)” value is -1.36.

“HMEAIYKKNKNLIHTVIRDNFPFLIDTADYEDAFQEGSIGLIRAIDRFDDGLEYKFSSYAYTAIRNQIA”: the “soluble fraction (log2)” value was -0.409.

As for “HMEALGLSPRQVDVLRLLVEGRSNKMIMRELELSESTVKTHLQAIFRRLGVSSRTQAVVAAARLGL”, the “soluble fraction (log2)” value was -1.25.

For “HMEALSAREIEILQALETGASNRELAKMLFISEATVKTHLVHIYQKLGVGTRTAAITEARERRV”, the “soluble fraction (log2)” value is -1.64.

For the sequence “HMEANAYFDAYPDVAAEWARLSGSDEGKATLSAIGVTTPQQFAQYHYTTFGSKENRNAPVGYTP”, the “soluble fraction (log2)” value stood at 0.0756.

For “HMEANPLTDREKEVLELVADGKNTKEIAQELSIKSGTVRNYISMILEKLEVKNRIEAITRSKEKGWF”, the “soluble fraction (log2)” value turned out to be 0.144.

For “HMEAPMPIFWRPQFRIGHDDIDADHRYLILLINTVELVLRFPDDPRNVELALTELRRYAEDHFEREER”, the “soluble fraction (log2)” value was -0.161.

With “HMEAQAHYDAIYKAHPNADSIAQSAEFKAWVDAQPSVVRNAYWQLFDPKEGGTAEQIVEVFDAFVKSS”, the “soluble fraction (log2)” value was -0.151.

In the case of “HMEDDIRSSIRTLDQFISKNQITLSKDVKNYILQLLSNDRMVTINELEKIKIYYDSNENIDLDTVKILLN”, the “soluble fraction (log2)” value is -0.754.

As to “HMEDEEILNEIRHTEQYVYYFGNYIMEHHVSRGLSKEKVIASLARELQIEIADIREDFDGMIEQIKTNILN”, the “soluble fraction (log2)” value was -0.163.

Regarding “HMEDESSIERYLGSGAIKGIGPSLAARIVKKFGKDTFRIIEQEPERLAEIKGISERKAMEISTLMEEK”, the “soluble fraction (log2)” value came out at 0.0193.

With “HMEDGRLPPPGTVLRREYKGRAVFVRVLPKGFEFEGEVYRSLSAIAAKVTGSHWNGFRFFGLHE”, the “soluble fraction (log2)” value was -1.54.

With “HMEDHMVVFGKGGRITRLPDKATVLEYLDAANFFASRSSVVKVNGKLASLDQTLRDGDSIEIVD”, the “soluble fraction (log2)” value is -0.183.

Take “HMEDINAVLAENLRRLRESRRLSLDAVARLTGVSKSMLGQIERGEVNPTVSTMWKIAGGLKVNFTALFRRE”: the “soluble fraction (log2)” value was -1.47.

For the sequence “HMEDIQPSVIFQNNMIDGFKKFGVSFLQNRRNVNVNTLNGLASAGTYPKWQQLLVNKISYIDMLLSTGG”, the “soluble fraction (log2)” value worked out at 0.0785.

Turning to “HMEDKIIVTVPGEYHLERIDRFLAANLEEDLSRSLIQRYIRENLITVNGEAVRANYKVKTDDEILITFPQ”, the “soluble fraction (log2)” value is -0.603.

In the case of “HMEDLAERLDNLSTMYAKMDPVRAAQVLLESKNKSENIEVLKRLKPKSLGLILENMPPREAYDYVSELQ”, the “soluble fraction (log2)” value turned out to be 0.0712.

Turning to “HMEDLGYVKVASQTAAIRKSAAVQAGQIGTVHEGETYRYLGEEEGWYLVEYNGQKAYISWDDGEL”, the “soluble fraction (log2)” value was -0.119.

Take “HMEDMMKALLDVVRAQHTATEGSEERPFDINDIIDMALNITGRPEEPEEQQELSDTIQKLAESLAPDIFP”: the “soluble fraction (log2)” value was -0.356.

With “HMEDNKLKNEIKNELVSHLEKPYSVEDLADALKYHGSAAFKLIVQELAILERERAVVVTHDGNFKINSS”, the “soluble fraction (log2)” value is -0.619.

“HMEDPAVYYKILQIPPDASLSEIHRAFEKITSAWDPERYPHISSWKETSAKKLQEIRNAYEKLLILRETG”: the “soluble fraction (log2)” value is -0.0409.

For “HMEDPFLWVEKLGSSDWIEREESAEKLLEAGEASVEALRTALTHPDLEVRERVRELLSVISPL”, the “soluble fraction (log2)” value is -0.104.

Consider “HMEDPRVTEIKNLQQDLAKKFKPTQGPASASDAVERVTAITTVMTKVAALPEDLRSEAMQPGKKM”, for which the “soluble fraction (log2)” value was -0.322.

For “HMEDQFWQNRAEMALASARRAGRIVTYAEMADAADIPAPQRIHKLTLWLEATMRQDHASGQPLRAALV”, the “soluble fraction (log2)” value was found to be 0.0463.

On to “HMEDQITNQQFTMTKQSILDLLVKKSYPPYELANELHLKKEEVLPIIRFLIAENEIHFKDGMLHLPH”, for which the “soluble fraction (log2)” value is -0.167.

For “HMEDQLDSLKDIIYDYLENNELYYNDLQEFKKIIIENMEFIHPNLNHKLIDNNFFKLINFKLEYNF”, the “soluble fraction (log2)” value was -0.0455.

For “HMEDSSSILNRMRKLIALLNRASEAYYKENKEIISNFEYDRLYDELLGLESRSNTVLSGSPTYKV”, the “soluble fraction (log2)” value was -1.63.

For “HMEDTFEYPVSVNGKLRFKIELPVSMEKDEIRNIVLNDERAKKWLATGTLTNLIVVPNRIINIVIK”, the “soluble fraction (log2)” value was -0.124.

Consider “HMEDTSTLSIKHKIKELINQESPQAILSDDKLVELLAAQGIKIARRTIAKYRETMNIPTSAERKRQKRPP”, for which the “soluble fraction (log2)” value is 0.479.

On to “HMEDVTLSLVVGEDLDGERLDVFLTWKLDRTRSQVQALIRDGKVRLEQGQRARPSMVVRSGMGISVSLEPR”, for which the “soluble fraction (log2)” value was -1.49.

As for “HMEDYYKILGVSKDASIDDIKKSYRKLSLQNHPDRNKSPQASENFAKINSAYEVLSDQRKKRQYDMQQSM”, the “soluble fraction (log2)” value came to 0.0897.

Turning to “HMEEAQWEFKWENTDSAEIHGPHSSSEMLKWQENSFFAKGVYVRKVGGDTTDFTDGKRIDFDLY”, the “soluble fraction (log2)” value was -0.822.

On to “HMEEDPILVAQRFLNIFRQLHIFDQQRREEFNSMILALPPEIRGTFGVLPGGSVLQEYVDELEISKGMA”, for which the “soluble fraction (log2)” value is -0.512.

For “HMEEDPVISQAQRQALFKLAHDHFGQEEGNKVILRLIGEHGLRSTTNMTASVYKTVTDALIQVIESMVEG”, the “soluble fraction (log2)” value is -0.0318.

“HMEEEDELALFLREERKNYDLTLTDVHEKTGIPQKVLKEFQWGDAQLTDRQRYTLTQYVEEAREYFQENA”: the “soluble fraction (log2)” value was found to be 0.0369.

With “HMEEEVKVPKIKGLTEAEAKAKLKSEGLESGTARSAYSDTVEEGHIISQSIQEGTKVPKGTAVSYEVSKGK”, the “soluble fraction (log2)” value worked out at 0.17.

Turning to “HMEEGKVKRMAMDMVDAFYDKVSAMVDDNNDLGRSVVDAWDDEEENPPEYMLDDETRAILVNAGKIEPE”, the “soluble fraction (log2)” value is 0.0748.

With “HMEEHSLRKQEMLRIIEALEQLTPKEKTVVVLYYFKGVLFKDIAMLLDVTEGRISQLHTAAMGRLKKLMD”, the “soluble fraction (log2)” value was -0.0471.

As to “HMEEIDLTPAEEILNKLPDNSRGYLIPTLNKIQNAYRFLPDPAMELLMEFFNVSRAEIFGVISFYPQLMI”, the “soluble fraction (log2)” value was -0.0574.

For “HMEEIPYGVISAKAGAAAYDYIKKSIELGIEKKIDGVATAPIQKEAIHMAGISYIGHTEMYQGIT”, the “soluble fraction (log2)” value worked out at 0.0739.

As for “HMEEKEIGQTLSVKIRENVLSKLDMTRDLEDEEVKHIIEHEIWLAAKKHYISLEERNSIKRGIFNSL”, the “soluble fraction (log2)” value is -0.573.

For the sequence “HMEELELTIDGEMVGRIDKQLGHHFDQFSRSQIQHWIEDGHVLVNGKQVKPKYKLLVGDHVQIIPEEPQK”, the “soluble fraction (log2)” value was determined as 0.25.

As for “HMEELIIQEELANKRLDIAISLLFPELTRAHAQKLIKEGSVLVDGKPRKASYPLTAGKRLSVTLPEPE”, the “soluble fraction (log2)” value came out at 0.05.

As for “HMEELPVLHLKHVVVEGESLWKLAEQYLNDGTRWQEIYMLNRENISNPDLIREGQELNIQFLQGE”, the “soluble fraction (log2)” value was -0.574.

Take “HMEENIKKDIEVPNIEGLTIDEAKKRLKEVNLNISIEDMEEKEGTEIITQQLPKAGIKVKEGVAIIAY”: the “soluble fraction (log2)” value was determined as 0.0824.

“HMEEPEFEPYVVRLTAIALNVRTGPGTQYPVAMVIRGGGAFTIVAEENGFGLLKSGAGWIMLQHTERV”: the “soluble fraction (log2)” value was -0.434.

As for “HMEEQELQLIQFPIASGSAWAGKAVRELILPPETLLVMLIRGTETMIPKGDTMVQEGDTAVLSASAYRDD”, the “soluble fraction (log2)” value is -0.434.
